Experiments:
anti-PEG-IgG = system: anti-PEG-IgG; design: species or system rats; conditions: rat, in vivo; for anti-PEG-IgG, Positive rate: sc, 0.75 mg/kg
Method: (§1) Polyethylene glycol conjugates of phenylalanine lyase or its mutant with different structures and modifier molecular weights, namely PL20, PL24, and PL54, were prepared according to the method described in Example 2. The phenylalanine lyase in PL20 has the amino acid sequence as set forth in SEQ ID NO: 1, and the polyethylene glycol has a molecular weight of 20K. The phenylalanine lyase in PL24 has the amino acid sequence as set forth in SEQ ID NO: 6, and the polyethylene glycol has a molecular weight of 2K. The phenylalanine lyase in PL54 has the amino acid sequence as set forth in SEQ ID NO: 6, and the polyethylene glycol has a molecular weight of 5K.
(§2) To evaluate the immunogenicity of PL20, PL24, and PL54 in animals, normal rats were selected and divided into 3 groups, with 6 rats per group (3 males and 3 females). Subcutaneous administration was performed at a dose of 0.75 mg/kg with PL54 (average degree of modification 13.6, 1.27 U/mg), PL24 (average degree of modification 13.3, 0.96 U/mg), and PL20 (average degree of modification 7.6, 1.14 U/mg) for the three groups, respectively. Administration was repeated 7 times, once weekly. Blood samples were collected 7 days after each administration. Serum anti-PEG-IgG and anti-PAL4 protein antibodies were detected by ELISA (refer to Example 5 for details). In the table, "1-7" indicated 7 days after the first administration, and "7-7" indicated 7 days after the seventh administration. x represented the average OD value of antibody detection by ELISA, and the positive rate represented the ratio of the number of antibody-positive animals to the total number of animals in the group. Table 6: Antibody titers in rats after multiple administrations of polyethylene glycol conjugates with different molecular weights

[1] = Specific enzyme activity of phenylalanine lyase (trans-cinnamic acid formation, absorbance at 290 nm); format: biochemical; conditions: polyethylene glycol conjugates; method as for the proteins
Method: Phenylalanine lyase specifically catalyzes the conversion of phenylalanine into trans-cinnamic acid with the release of ammonia. […] Enzyme activity is defined as the amount of enzyme required to produce 1 µmol of trans-cinnamic acid per minute in buffer (100 mmol/L Tris-HCl, pH 8.5) at room temperature (25°C) as one unit of enzyme activity.
The specific enzyme activity of phenylalanine lyase and its mutants (i.e., PAL, PAL2, PAL3, and PAL4 proteins) prepared in Example 1 was evaluated by taking an appropriate amount of test sample and diluting it to 0.4 mg/ml using assay buffer (100 mmol/L Tris-HCl, pH 8.0). 2.9 ml of substrate solution (100 mmol/L Tris-HCl, 45 mmol/L Phe, pH 8.0) was placed in a cuvette, followed by addition of 0.1 ml of diluted test solution and immediate mixing. The changes in absorbance per minute were recorded at a wavelength of 290 nm, and the specific enzyme activity was calculated according to the formula. Enzyme activity (U/mg) = (AS−AO)VN × 10^6 /εLTV1 [formula]
Where AS and AO represent the absorbance of trans-cinnamic acid at the […] of the reaction, respectively; V is the total volume (L) of the reaction system; L is the optical path length of the cuvette (cm); ε is the molar extinction coefficient of trans-cinnamic acid (10238.1 L/(mol·cm)); T is the reaction time (min); N is the dilution factor of the test sample; V1 is the volume of test sample (ml).
The enzyme activity retention rate was calculated by comparing the specific enzyme activity of phenylalanine lyase mutants with the specific enzyme activity of the phenylalanine lyase. Table 2: Specific enzyme activity of phenylalanine lyase mutants
The specific enzyme activity of the polyethylene glycol conjugates of phenylalanine lyase and its mutants prepared in Step 1 of Example 2 was determined according to the method described in Step 1 of this example. The enzyme activity retention rate was calculated by comparing the specific enzyme activity of each conjugate with its specific enzyme activity prior to PEG modification (e.g., the enzyme activity retention rate of PL5-1 = specific enzyme activity of PL5-1 / specific enzyme activity of PAL protein). Table 3: Specific enzyme activity of PEGylated phenylalanine lyase mutants

anti-PAL-IgG = assay: Immunogenicity of conjugates with different PEG molecular weights in rats: anti-PAL-IgG (ELISA); format: in vivo; conditions: 0.75 mg/kg s.c. once weekly
Method: as §1, §2

[2] = 1-7 (7 days after the first administration)
[3] = 1-7, antibody-positive animals / animals in the group
[4] = 7-7 (7 days after the seventh administration)
[5] = 7-7, antibody-positive animals / animals in the group

Row | Molecule | anti-PEG-IgG antibody titer, comparison between groups (anti-PEG-IgG) | anti-PEG-IgG, Positive rate (anti-PEG-IgG) | Specific enzyme activity [1] | anti-PAL-IgG, x (average OD value of antibody detection by ELISA) (anti-PAL-IgG; [2]) | anti-PAL-IgG, Positive rate (anti-PAL-IgG; [3]) | anti-PAL-IgG, x (average OD value of antibody detection by ELISA) (anti-PAL-IgG; [4]) | anti-PAL-IgG, Positive rate (anti-PAL-IgG; [5])
1 | PL20: polyethylene glycol conjugate of phenylalanine lyase SEQ ID NO: 1, polyethylene glycol molecular weight 20K, average degree of modification 7.6 [reference compound] | higher than that in the PL24 and PL54 groups | Positive rate: 6/6 | 1.14 U/mg | x=0.118 | Positive rate: 1/6 | x=0.102 | Positive rate: 1/6
2 | PL24: polyethylene glycol conjugate of phenylalanine lyase mutant SEQ ID NO: 6, polyethylene glycol molecular weight 2K, average degree of modification 13.3 (conjugate, PEG 2K conjugate, ~13.3 PEG per molecule) MKTLSQAQSKTSSQQFSFTGNSSANVIIGNQKLTINDVARVARNGTLVSLTNNTDILQGIQASCDYINNAVKSGEPIYGVTSGFGGMANVAISREQASELQTNLVWFLKTGAGNKLPLADVRAAMLLRANSHMRGASGIRLELIKRMEIFLNAGVTPYVYEFGSIGASGDLVPLSYITGSLIGLDPSFKVDFNGKEMDAPTALRQLNLSPLTLLPKEGLAMMNGTSVMTGIAANCVYDTKILTAIAMGVHALDIQALNGTNQSFHPFIHNSKPHPGQLWAADQMISLLANSQLVRDELDGKHDYRDHELIQDRYSLRCLPQYLGPIVDGISQIAKQIEIEINSVTDNPLIDVDNQASYHGGNFLGQYVGMGMDHLRYYIGLLAKHLDVQIALLASPEFSNGLPPSLLGNRERKVNMGLKGLQICGNSIMPLLTFYGNSIADRFPTHAEQFNQNINSQGYTSATLARKSVDIFQNYVAIALMFGVQAVDLRTYKKTGHYDARASLSPATERLYSAVRHVVGQKPTSDRPYIWNDNEQGLDEHIAKISADIAAGGVIVQAVQDILPSLH | – | Positive rate: 6/6 | 0.96 U/mg | x=0.130 | Positive rate: 4/6 | x=0.891 | Positive rate: 6/6

Source: patent EP4711453A1, “PHENYLALANINE LYASE MUTANT, AND CONJUGATE THEREOF OR PHARMACEUTICALLY ACCEPTABLE SALT THEREOF” (Peg-Bio Biopharm Co., Ltd. (Chongqing), priority 2023, dated 2024)
